Patent US20260216242A1 (ALMAC DISCOVERY, published 2026)

Tests used:
[1] = target: T1, Human ALPPL2 (leucine zipper) (human); assay: BLI, antigen immobilised
T1 construct: Whole entry: fused with a cysteine stabilised leucine zipper and His tag; also called hALPPL2
T1 chain: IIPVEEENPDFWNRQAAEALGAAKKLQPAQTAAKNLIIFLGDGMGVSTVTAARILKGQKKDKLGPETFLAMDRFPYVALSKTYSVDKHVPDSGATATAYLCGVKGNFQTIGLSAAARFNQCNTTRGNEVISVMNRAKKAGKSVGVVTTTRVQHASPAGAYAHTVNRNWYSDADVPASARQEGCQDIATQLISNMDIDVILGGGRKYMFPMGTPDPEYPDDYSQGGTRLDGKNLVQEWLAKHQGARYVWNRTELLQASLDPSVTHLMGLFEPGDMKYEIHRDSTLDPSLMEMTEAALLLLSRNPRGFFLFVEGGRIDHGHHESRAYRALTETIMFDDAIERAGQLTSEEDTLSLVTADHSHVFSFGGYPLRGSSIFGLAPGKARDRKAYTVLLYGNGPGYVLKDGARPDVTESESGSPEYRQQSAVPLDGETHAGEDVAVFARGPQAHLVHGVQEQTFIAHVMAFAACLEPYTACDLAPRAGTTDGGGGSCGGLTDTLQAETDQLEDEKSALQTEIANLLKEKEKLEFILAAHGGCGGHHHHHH
Description: (§1) Binding kinetics were determined using the Biolayer Interferometry (BLI) Octet K2 system (Sartorius). […] All assays were conducted in PBS with a plate temperature of 25° C. Ka (M⁻¹s⁻¹), Kd (s⁻¹) and KD (nM) values were determined using Octet Data Analysis High Throughput software (ForteBio) for Biolayer Interferometry.

[2] = target: T2, Human ALPP (leucine zipper) (human); assay: BLI, antigen immobilised
T2 construct: Whole entry: ALPP fused with a cysteine stabilised leucine zipper and His tag; also called hALPP
T2 chain: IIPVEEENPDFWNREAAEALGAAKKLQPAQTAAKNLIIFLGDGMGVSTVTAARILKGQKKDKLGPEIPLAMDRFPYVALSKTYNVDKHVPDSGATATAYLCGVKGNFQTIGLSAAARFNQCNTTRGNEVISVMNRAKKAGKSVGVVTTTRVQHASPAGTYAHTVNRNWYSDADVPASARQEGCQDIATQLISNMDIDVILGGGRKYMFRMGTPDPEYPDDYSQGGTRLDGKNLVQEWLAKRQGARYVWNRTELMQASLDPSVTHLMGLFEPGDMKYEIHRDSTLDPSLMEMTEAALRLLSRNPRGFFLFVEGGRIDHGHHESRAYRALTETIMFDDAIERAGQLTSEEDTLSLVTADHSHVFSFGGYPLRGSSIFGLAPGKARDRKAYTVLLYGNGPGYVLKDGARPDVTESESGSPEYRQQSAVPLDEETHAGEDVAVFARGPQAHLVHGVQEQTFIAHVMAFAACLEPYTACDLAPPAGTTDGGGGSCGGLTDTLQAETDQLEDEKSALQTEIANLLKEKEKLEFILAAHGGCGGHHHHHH
Description: as §1

[3] = target: T3, human ALPPL2 on CHO cells (human, UniProt P10696 20-503); assay: flow cytometry, CHO cells stably expressing human ALPPL2; His6-tagged VHH detected with anti-His tag Ab and FITC anti-mouse Ab
T3 construct: whole, on cells; also called CHO-ALPPL2
Description: (§2) C-terminal His tagged VHH proteins were assessed for ALPP, ALPPL2, ALPI and ALPL cell-surface binding by flow cytometry. Binders encompassing different epitope bins were screened on CHO cells stably expressing ALPP, ALPPL2, ALPI or ALPL. High levels of cell-surface proteins expression were confirmed for each of the cell-lines by flow cytometry.
(§3) Cell surface binding of test agents to hALPP isoforms was characterized in four CHO-ALPP isoform stably transfected cell lines (CHO-ALPP, CHO-ALPPL2, CHO-ALPI and CHO-ALPL) and the resulting KDapp values determined. Adherent cells were detached from tissue culture flasks by incubating with 0.1% EDTA/PBS solution at 37° C. for ~10 minutes or until cells detached easily. Cells were re-suspended in ice-cold PBS/2% FCS in 15 ml tubes and centrifuged at 1700 rpm for 5 mins at 4° C. Supernatant was removed and the cell pellet re-suspended in PBS/2% FCS. […] Cells were incubated with 100 μl of test agents at a range of concentrations, plus controls for 1 hr on ice. The sample plate was centrifuged at 1700 rpm for 5 mins at 4° C. The supernatant was removed, and a wash performed by re-suspending the cell pellets in 0.25 mL of ice-cold PBS/2% FCS using a multichannel pipette. […] Binding of VHH (His6 tagged) agents was determined by adding 100 μl of anti-x6His tag Ab (Abcam) per cell pellet sample as appropriate and incubating on ice for 30 mins. […]

human ALPP on CHO cells [4] = target: T4, human ALPP on CHO cells (human, UniProt P05187 23-506); assay: flow cytometry, CHO cells, KDapp
T4 construct: whole, on cells; also called CHO-ALPP
Description: (§4) Cell surface binding of test agents to hALPP isoforms was characterized in four CHO-ALPP isoform stably transfected cell lines (CHO-ALPP, CHO-ALPPL2, CHO-ALPI and CHO-ALPL) and the resulting KDapp values determined. Adherent cells were detached from tissue culture flasks by incubating with 0.1% EDTA/PBS solution at 37° C. for ~10 minutes or until cells detached easily. Cells were re-suspended in ice-cold PBS/2% FCS in 15 ml tubes and centrifuged at 1700 rpm for 5 mins at 4° C. Supernatant was removed and the cell pellet re-suspended in PBS/2% FCS. […] Cells were incubated with 100 μl of test agents at a range of concentrations, plus controls for 1 hr on ice. The sample plate was centrifuged at 1700 rpm for 5 mins at 4° C. The supernatant was removed, and a wash performed by re-suspending the cell pellets in 0.25 mL of ice-cold PBS/2% FCS using a multichannel pipette. Samples were again centrifuged at 1700 rpm for 5 min at 4° C. Supernatant was removed and two further washes performed as described. After the final wash and centrifugation step, excess liquid was removed by blotting the plate on tissue paper. Binding of VHH (His6 tagged) agents was determined by adding 100 μl of anti-x6His tag Ab (Abcam) per cell pellet sample as appropriate and incubating on ice for 30 mins. Wash steps were performed as described previously. Fitc-anti-mouse antibody (ThermoFisher) was used to detect binding of the VHH (His6 tagged) agents by incubating with the appropriate samples for 30 min on ice in the dark. Wash steps were performed as described previously. All cell pellets were finally re-suspended in […] of ice-cold PBS/2% FCS and left on ice in the dark prior to analysis on a Merck-Millipore Guava EasyCyte HT or Thermo Fisher Attune N×T flow cytometer.

[5] = target: T3, human ALPPL2 on CHO cells; assay: flow cytometry, CHO cells, KDapp
Description: as §4

human ALPP on CHO cells [6] = target: T4, human ALPP on CHO cells; assay: flow cytometry, CHO cells stably expressing human ALPP; His6-tagged VHH detected with anti-His tag Ab and FITC anti-mouse Ab
Description: as §2, §3

human ALPL on CHO cells = target: T5, human ALPL on CHO cells (human, UniProt P05186 18-501); assay: flow cytometry, CHO cells stably expressing human ALPL; PDC detected with FITC anti-human Ab
T5 construct: whole, on cells; also called CHO-ALPL
T5 sequence (looked up): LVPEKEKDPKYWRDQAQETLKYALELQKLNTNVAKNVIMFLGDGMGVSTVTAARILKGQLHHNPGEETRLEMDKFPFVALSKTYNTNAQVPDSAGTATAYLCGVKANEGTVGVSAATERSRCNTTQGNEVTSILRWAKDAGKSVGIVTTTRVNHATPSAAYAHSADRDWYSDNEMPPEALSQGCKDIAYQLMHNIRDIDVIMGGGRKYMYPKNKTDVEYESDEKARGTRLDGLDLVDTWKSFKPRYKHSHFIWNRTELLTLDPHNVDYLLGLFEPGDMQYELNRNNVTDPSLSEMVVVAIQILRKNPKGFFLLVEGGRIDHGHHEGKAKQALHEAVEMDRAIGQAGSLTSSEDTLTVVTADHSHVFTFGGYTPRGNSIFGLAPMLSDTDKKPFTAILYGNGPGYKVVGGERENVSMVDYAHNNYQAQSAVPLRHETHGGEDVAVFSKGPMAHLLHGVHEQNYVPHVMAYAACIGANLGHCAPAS
In short: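 Cell-surface binding to CHO cells stably transfected with human ALPP, ALPPL2, ALPI or ALPL; cells detached with 0.1% EDTA/PBS, incubated with biparatopic VHH-hFc drug conjugates over a concentration range for 1 hr on ice. Bound agent detected with FITC anti-human Ab (30 min, ice, dark) by flow cytometry; KDapp derived from binding.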

[7] = target: T3, human ALPPL2 on CHO cells; assay: flow cytometry, CHO cells stably expressing human ALPPL2; PDC detected with FITC anti-human Ab
Description: (§5) Biparatopic VHH-hFc drug conjugates were assessed for human ALPP, ALPPL2, ALPI and ALPL cell-surface binding by flow cytometry. Binders were screened on CHO cells stably expressing human ALPP, ALPPL2, ALPI or ALPL.
(§6) Cell surface binding of test agents to hALPP isoforms was characterized in four CHO-ALPP isoform transfectant cell lines (CHO-ALPP, CHO-ALPPL2, CHO-ALPI and CHO-ALPL) and the resulting KDapp values determined. Adherent cells were detached from tissue culture flasks by incubating with 0.1% EDTA/PBS solution at 37° C. for […] or until cells detached easily. Cells were re-suspended in ice-cold PBS/2% FCS in 15 ml tubes and centrifuged at 1700 rpm for 5 mins at 4° C. Supernatant was removed and the cell pellet re-suspended in PBS/2% FCS. […] Cells were incubated with 100 μl of test agents at a range of concentrations, plus controls for 1 hr on ice. The sample plate was centrifuged at 1700 rpm for 5 mins at 4° C. The supernatant was removed, and a wash performed by re-suspending the cell pellets in 0.25 mL of ice-cold PBS/2% FCS using a multichannel pipette. Samples were again centrifuged at 1700 rpm for 5 min at 4° C. Supernatant was removed and two further washes performed as described. […] Binding of VHH-hFc agents was determined by adding 100 μl of Fitc-anti-human Ab (ThermoFisher) and incubating for 30 mins on ice in the dark. […]

human ALPP on CHO cells [8] = target: T4, human ALPP on CHO cells; assay: flow cytometry, CHO cells stably expressing human ALPP; PDC detected with FITC anti-human Ab
Description: as §5, §6

B1: B01 His (VHH, not shown: small tags and cut ends)
VHH: QVQLVESGGGLVQAGGSLRLSCEVTRSPMPIDTMAWYRQAPGRQRELVAIISRSGSTNYADSVKGRFTISRNDTKSTMYKSTMYLKMNTLELEDTGVYYCNAVGLWNGAEYWGQGTQVTVSS
What does the source list for B1?
Kd [1]: 0.29 nM; koff [1]: 0.00014 s⁻¹; kon [1]: 482000 M⁻¹ s⁻¹; Kd [2]: 1.18 nM; koff [2]: 0.000191 s⁻¹; kon [2]: 162000 M⁻¹ s⁻¹; EC50 (read off the curve) [3]: ~5 nM; Kd (human ALPP on CHO cells [4]): 5.3 nM; Kd [5]: 5 nM; EC50 (read off the curve) (human ALPP on CHO cells [6]): ~5 nM

B2: D10-A06 hFc-vcPAB-MMAE [G4S]3 (Fc fusion, DAR 4)
chain 1: QVQLVESGGGLVQPGGSLRLSCAASGSIFSVNTMGWYRQAPGKQRDLVAVATSGGTIHYADSVKGRFTISRDNAKNTVYLQMNSLKPEDTAVYYCNLVVPYGMIAGDHDYWGQGTKVTVSSGGGGSGGGGSGGGGSEPKSSDKTHTCPPCPAPELLGGPCVFLFPPKPKDTLMISRTPEVTCVVVDVSHEDPEVKFNWYVDGVEVHNAKTKPREEQYNSTYRVVSVLTVLHQDWLNGKEYKCKVSNKALPAPIEKTISKAKGQPREPQVYTLPPSRDELTKNQVSLYCLVKGFYPSDIAVEWESNGQPENNYKTTPPVLDSDGSFFLYSKLTVDKSRWQQGNVFSCSVMHEALHNHYTQKSLCLSPGK
chain 2: QVHLVESGGGLVQAGGSLRLSCAASGRTFLSMGWFRQAPGKEREFVAAISWTGGSTGYADSVKGRFTISRESDKETMYLQMNSLKPEDTAVYYCAARGDVYYGGDDATRYKYWGQGTQVTVSSGGGGSGGGGSGGGGSEPKSSDKTHTCPPCPAPELLGGPCVFLFPPKPKDTLMISRTPEVTCVVVDVSHEDPEVKFNWYVDGVEVHNAKTKPREEQYNSTYRVVSVLTVLHQDWLNGKEYKCKVSNKALPAPIEKTISKAKGQPREPQVYTLPPSRDELTKNQVSLTCLVKGFYPSDIAVEWESNGQPENNYKTTPPVLDSDGSFFLTSKLTVDKSRWQQGNVFSCSVMHEALHNHYTQKSLCLSPGK
modifications: MC-vc-PAB-MMAE on Cys 239 and Cys 442 (EU numbering)
notes: Biparatopic drug conjugate, DAR 4; also called #633
Does B2 bind (human ALPL on CHO cells)?
Result: no binding (tested: 350 nM)

And the “EC50 (read off the curve)” value [7]?
The value was roughly 5 nM.

B3: D10-A06-hFc-vcPAB-MMAE [G4S]1 (Fc fusion, DAR 4)
chain 1: QVQLVESGGGLVQPGGSLRLSCAASGSIFSVNTMGWYRQAPGKQRDLVAVATSGGTIHYADSVKGRFTISRDNAKNTVYLQMNSLKPEDTAVYYCNLVVPYGMIAGDHDYWGQGTKVTVSSGGGGSEPKSSDKTHTCPPCPAPELLGGPCVFLFPPKPKDTLMISRTPEVTCVVVDVSHEDPEVKFNWYVDGVEVHNAKTKPREEQYNSTYRVVSVLTVLHQDWLNGKEYKCKVSNKALPAPIEKTISKAKGQPREPQVYTLPPSRDELTKNQVSLYCLVKGFYPSDIAVEWESNGQPENNYKTTPPVLDSDGSFFLYSKLTVDKSRWQQGNVFSCSVMHEALHNHYTQKSLCLSPGK
chain 2: QVHLVESGGGLVQAGGSLRLSCAASGRTFLSMGWFRQAPGKEREFVAAISWTGGSTGYADSVKGRFTISRESDKETMYLQMNSLKPEDTAVYYCAARGDVYYGGDDATRYKYWGQGTQVTVSSGGGGSEPKSSDKTHTCPPCPAPELLGGPCVFLFPPKPKDTLMISRTPEVTCVVVDVSHEDPEVKFNWYVDGVEVHNAKTKPREEQYNSTYRVVSVLTVLHQDWLNGKEYKCKVSNKALPAPIEKTISKAKGQPREPQVYTLPPSRDELTKNQVSLTCLVKGFYPSDIAVEWESNGQPENNYKTTPPVLDSDGSFFLTSKLTVDKSRWQQGNVFSCSVMHEALHNHYTQKSLCLSPGK
modifications: MC-vc-PAB-MMAE on Cys 239 and Cys 442 (EU numbering)
notes: Biparatopic drug conjugate, DAR 4; also called #676
Does B3 bind (human ALPL on CHO cells)?
Result: no binding (tested: 350 nM)

What about the “EC50 (read off the curve)” value (human ALPP on CHO cells [8]) of the same binder?
The value was 10 to 22 nM.
